Holding throughout (assay): cell-based or functional assay
Assay [1] addresses HLA-B*07:02 (human).
The target in assay [2] is HLA-B*08:01 (human).
In assay [3] the target is HLA-B*51:01 (human).

B1: UL34 180-188 … (peptide)
peptide: LPHERHREL
modifications: not checked
With B1, the % Positive donors (after 12 days of stimulation), IFNγ ELISpot in assay [1] was 25%; in assay [2], 90.9%.

B2: UL26 61-69 … (peptide)
peptide: LPYPRGYTL
modifications: not checked
In the case of B2, the figures for the % Positive donors (after 12 days of stimulation), IFNγ ELISpot in assay [3] and in assay [2] were 62.5% and 68.8%, respectively.

The record behind these values is patent US20220332764A1, “T CELL EPITOPES OF HCMV AND USES OF THEREOF” (EBERHARD KARLS UNIVERSITÄT TÜBINGEN, priority 2019, published 2022).
